Source: paper doi:10.1101/2020.05.13.094045

Legend:
[1] = molecular target: AP_SAP11-like_PM19-GFP ('Candidatus Phytoplasma mali' strain PM19); assay: FRET or BRET
[2] = molecular target: AP_SAP11-like_PM19^Δ40-56-GFP ('Candidatus Phytoplasma mali' strain PM19); assay: FRET or BRET

B1: AtTCP4-RFP (natural protein)
chain: MSDDQFHHPPPPSSMRHRSTSDAADGGCGEIVEVQGGHIVRSTGRKDRHSKVCTAKGPRDRRVRLSAHTAIQFYDVQDRLGFDRPSKAVDWLIKKAKTSIDELAELPPWNPADAIRLAAANAKPRRTTAKTQISPSPPPPQQQQQQQQLQFGVGFNGGGAEHPSNNESSFLPPSMDSDSIADTIKSFFPVIGSSTEAPSNHNLMHNYHHQHPPDLLSRTNSQNQDLRLSLQSFPDGPPSLLHHQHHHHTSASASEPTLFYGQSNPLGFDTSSWEQQSSEFGRIQRLVAWNSGGGGGATDTGNGGGFLFAPPTPSTTSFQPVLGQSQQLYSQRGPLQSSYSPMIRAWFDPHHHHQSISTDDLNHHHHLPPPVHQSAIPGIGFASGEFSSGFRIPARFQGQEEEQHDGLTHKPSSASSISRH
FRET efficiency [1]: 11%

B2: AtTCP13-RFP (natural protein)
chain: MNIVSWKDANDEVAGGATTRREREVKEDQEETEVRATSGKTVIKKQPTSISSSSSSWMKSKDPRIVRVSRAFGGKDRHSKVCTLRGLRDRRVRLSVPTAIQLYDLQERLGVDQPSKAVDWLLDAAKEEIDELPPLPISPENFSIFNHHQSFLNLGQRPGQDPTQLGFKINGCVQKSTTTSREENDREKGENDVVYTNNHHVGSYGTYHNLEHHHHHHQHLSLQADYHSHQLHSLVPFPSQILVCPMTTSPTTTTIQSLFPSSSSAGSGTMETLDPRQMVSHFQMPLMGNSSSSSSQNISTLYSLLHGSSSNNGGRDIDNRMSSVQFNRTNSTTTANMSRHLGSERCTSRGSDHHM
FRET efficiency [1]: 9% | FRET efficiency [2]: 8%
